Results published in paper PMC5547543.

What was measured:
Hck (2PA-YEEI) [1] = biological target: Hck (2PA-YEEI) (UniProt P08631)
Hck (2PA-YEEI) [2] = biological target: Hck (2PA-YEEI) (UniProt P08631); test: SPR; Hck (2PA-YEEI) amine-coupled (EDC/NHS) to a CMD 500 carboxymethyl dextran chip, 6053 RU, BIAcore 2000; Csk, Chk, Chk mutants and chimera as analytes in HBS (10 mM HEPES pH 7.4, 150 mM NaCl, 3.4 mM EDTA, 0.005% Tween 20); global fit to a 1 to 1 model with mass transfer; molecular binding activity from the maximum response

inhibition of the kinase activity of Hck (2PA-YEEI) (0.5 μM) on the cdc2 (6-20) peptide after pre-incubation with Chk; more than 60% at 1.5 μM, up to 8.3 μM Chk (Hck (2PA-YEEI) [1]): 80%
Kd (Hck (2PA-YEEI) [2]): 64 nM
koff (Hck (2PA-YEEI) [2]): 0.000272 s⁻¹
kon (Hck (2PA-YEEI) [2]): 4250 M⁻¹ s⁻¹
molecular binding activity (MBA) at 2.2 μM Chk (Hck (2PA-YEEI) [2]; scale: mol of analyte bound per mol of immobilized Hck): 0.46
B1: Csk-homologous kinase (Chk), recombinant wild type (enzyme)
chain: MQGHFPAERREGRPRRGTRGQQQLLVSPRFLRAWHPPPVSARMPTRRWAPGTQCITKCEHTRPKPGELAFRKGDVVTILEACENKSWYRVKHHTSGQEGLLAAGALREREALSADPKLSLMPWFHGKISGQEAVQQLQPPEDGLFLVRESARHPGDYVLCVSFGRDVIHYRVLHRDGHLTIDEAVFFCNLMDMVEHYSKDKGAICTKLVRPKRKHGTKSAEEELARAGWLLNLQHLTLGAQIGEGEFGAVLQGEYLGQKVAVKNIKCDVTAQAFLDETAVMTKMQHENLVRLLGVILHQGLYIVMEHVSKGNLVNFLRTRGRALVNTAQLLQFSLHVAEGMEYLESKKLVHRDLAARNILVSEDLVAKVSDFGLAKAERKGLDSSRLPVKWTAPEALKHGKFTSKSDVWSFGVLLWEVFSYGRAPYPKMSLKEVSEAVEKGYRMEPPEGCPGPVHVLMSSCWEAEPARRPPFRKLAEKLARELRSAGAPASVSGQDADGSTSPRSQEP
